In paper PMC5698441 (Nature Communications, 2017):

Biological target: T1, biotinylated CaM (UniProt P0DP23 1-149, biotin (EZ link NHS Biotin, two-fold molar excess))
T1 construct: calmodulin, biotin-labelled; also called biotin-CaM; biotin-labeled CaM; source: purified CaM labelled with EZ link NHS Biotin, separated from free biotin by SEC
Assay: AlphaScreen or HTRF; competition: WT or mutant 20-mer peptides AKAP79 77-96 added to biotin-CaM (10 nM) and GST-AKAP79 (1-153); emission relative to untreated; peptide concentration not given
Conditions: both partners purified

B1: 20-mer AKAP79 (77–96) V86A (peptide)
peptide: GAWASLKRLATRRKRSESSK
notes: AKAP79 residues 77-96 with V86A; also called V86A peptide; source: synthetic peptide (Sigma PEPscreen)
For B1, the “alphascreen emission relative to untreated samples” value was 0.17 ± 0.04 relative to untreated.
